Laboratory results as given in paper PMC8938923, “Essential Functional Interplay of the Catalytic Groups in Acid Phosphatase” (ACS Catalysis, 2022).
Where a chain is given by its changes, count along the chain named. Names may count otherwise.

B1: ecAGP (α-D-glucose 1-phosphate phosphatase) (Escherichia coli K-12) (protein)
chain: QTVPEGYQLQQVLMMSRHNLRAPLANNGSVLEQSTPNKWPEWDVPGGQLTTKGGVLEVYMGHYMREWLAEQGMVKSGECPPPYTVYAYANSLQRTVATAQFFITGAFPGCDIPVHHQEKMGTMDPTFNPVITDDSAAFSEQAVAAMEKELSKLQLTDSYQLLEKIVNYKDSPACKEKQQCSLVDGKNTFSAKYQQEPGVSGPLKVGNSLVDAFTLQYYEGFPMDQVAWGEIKSDQQWKVLSKLKNGYQDSLFTSPEVARNVAKPLVSYIDKALVTDRTSAPKITVLVGHDSNIASLLTALDFKPYQLHDQNERTPIGGKIVFQRWHDSKANRDLMKIEYVYQSAEQLRNADALTLQAPAQRVTLELSGCPIDADGFCPMDKFDSVLNEAVK
notes: purified enzyme; homodimer; expression construct and tags only in supplement
B2: ecAGP (α-D-glucose 1-phosphate phosphatase) (Escherichia coli K-12; H40D) (protein)
chain: B1 chain with H18D
notes: as for B1
B3: ecAGP (α-D-glucose 1-phosphate phosphatase) (Escherichia coli K-12; D312A) (protein)
chain: B1 chain with D290A
notes: as for B1
B4: YidA (alternative name: HAD13) (Escherichia coli K-12) (protein)
chain: MAIKLIAIDMDGTLLLPDHTISPAVKNAIAAARARGVNVVLTTGRPYAGVHNYLKELHMEQPGDYCITYNGALVQKAADGSTVAQTALSYDDYRFLEKLSREVGSHFHALDRTTLYTANRDISYYTVHESFVATIPLVFCEAEKMDPNTQFLKVMMIDEPAILDQAIARIPQEVKEKYTVLKSAPYFLEILDKRVNKGTGVKSLADVLGIKPEEIMAIGDQENDIAMIEYAGVGVAMDNAIPSVKEVANFVTKSNLEDGVAFAIEKYVLN
notes: construct only in supplement

Legend:
[1] = substrate: O=P(O)(O)O[C@H]1O[C@H](CO)[C@@H](O)[C@H](O)[C@H]1O; assay: purified protein, by the assay type; set-up: Michaelis-Menten kinetics of substrate hydrolysis, initial rates of free phosphate release, pH 7.0, 37 °C
Procedure: 8 S1.10 Structure determination and refinement The structure of H18D was determined by molecular replacement with PHASER9 using PDB ID: 1NT4 (H18A) as a search model. Model building was performed with COOT10 and refine-ment was carried out with phenix.refine. 11 The final structures were evaluated using MolPro-bity. 12 The number of Ramachandran outliers was below 0.2%. Figures of the structural models were prepared using PyMol 1.3. 13 S1.11 Phosphatase kinetics The rate constant kcat and the Michaelis constant KM were determined by measuring the initial rate of phosphate hydrolysis catalyzed by wild-type ecAGP (2 nM), H18D or H18D-2 (110 µM), D290A (2 nM - 5 µM, depending on the substrate used) or H18D/D290A (110 µM) in 50 mM HEPES buffer (pH 7.0). Reactions were incubated at 37°C on a Thermomixer comfort (Eppendorf, Hamburg, Germany) with agitation at 650 rpm. The reactions were started by ad-dition of enzyme. Glc1P, Glc6P, and the bis(cyclohexylammonium) salts of [compound left out], 2-nitrophenyl phosphate, 3-nitrophenyl phosphate, [compound left out] phosphate, 4-cyanophenyl S13 phosphate and 3-chlorophenyl phosphate were used as substrates in concentrations ranging from 0.01 mM to 10 mM. Incubation times were adjusted to ensure that the overall substrate hydrolysis was below 10 %. Samples withdrawn were quenched by heating (99°C, 5 min) and the free phosphate concentration was measured in supernatants of centrifuged (16000 × g, 15 min, 4°C) samples. All reactions were performed in triplicate. Kinetic parameters were obtained from non-linear least squares fits (SigmaPlot, Systat, Erkrath, Germany) of initial rates of phosphate release to the Michaelis–Menten equation. V is the initial rate, Vmax is the maximum initial rate, KM is the Michaelis constant and [S] is the initial substrate concentration (equation 1). The kcat was obtained from the relationship, kcat = Vmax/[E], where [E] is the molar concentration of active sites. [E] was obtained from the protein concentration using a molecular mass of the ecAGP subunit of 46674 Da. S10 (Merck Millipore) to a total protein concentration of 13 mg/mL in 10 mM NaAc (pH 4.5). Aliquots of 70 µL were stored at -70°C until use. Purity of the protein preparations was verified by SDS-PAGE. The ecAGP activity was assayed as described below in the section phosphatase kinetics. One unit of ecAGP activity is the amount of enzyme releasing 1 μmol of inorganic phosphate from Glc1P per minute under the conditions applied. S1.5 YidA The YidA from E. coli was used. A N-terminally His-tagged enzyme preparation was applied. […]

[2] = substrate: O=P(O)(O)O[C@H]1O[C@H](CO)[C@@H](O)[C@H](O)[C@H]1O; assay: phosphomonoester hydrolysis kinetics; type: biochemical, Escherichia coli

Protein | Km [1] | kcat [1] | also measured
B1 | 90 ± 20 µM | 35 ± 1.7 s⁻¹ | kcat ([2]; range printed jointly for wild-type and H18D, individual values in supplement): 35 ± 2 s^–1
B2 | – | – | kcat ([2]; range printed jointly for wild-type and H18D, phospho-enzyme intermediate on Asp18): 2.0 × 10^–4 s^–1
B3 | – | – | Km ([2]; general acid-base removed): 1060 ± 120 µM; kcat ([2]; general acid-base removed): 0.014 ± 0.01 s⁻¹
B4 | 210 ± 30 µM | 20 ± 1.3 s⁻¹ | –
